According to article PMC11327267 (Nature Communications, 2024):
One block for each binder: values may come before it.

Target: T1, human FIGNL1ΔN (fidgetin-like 1 in which the N-terminal 284 aa were deleted) (human, UniProt Q6PIW4 285-674)
T1 sequence: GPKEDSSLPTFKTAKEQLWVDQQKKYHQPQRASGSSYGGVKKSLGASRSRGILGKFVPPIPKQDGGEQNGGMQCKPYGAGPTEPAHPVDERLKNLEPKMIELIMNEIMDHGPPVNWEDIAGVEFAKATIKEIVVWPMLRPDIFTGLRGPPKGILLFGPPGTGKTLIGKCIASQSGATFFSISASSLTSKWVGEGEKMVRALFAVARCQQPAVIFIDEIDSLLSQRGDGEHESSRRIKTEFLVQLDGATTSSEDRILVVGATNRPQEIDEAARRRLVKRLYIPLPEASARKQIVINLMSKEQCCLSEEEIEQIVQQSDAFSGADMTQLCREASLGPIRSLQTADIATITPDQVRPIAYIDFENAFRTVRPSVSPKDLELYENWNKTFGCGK
Test: native gel or EMSA

binding result: binds
B1: human RAD51 (natural protein)
chain: MAMQMQLEANADTSVEEESFGPQPISRLEQCGINANDVKKLEEAGFHTVEAVAYAPKKELINIKGISEAKADKILAEAAKLVPMGFTTATEFHQRRSEIIQITTGSKELDKLLQGGIETGSITEMFGEFRTGKTQICHTLAVTCQLPIDRGGGEGKAMYIDTEGTFRPERLLAVAERYGLSGSDVLDNVAYARAFNTDHQTQLLYQASAMMVESRYALLIVDSATALYRTDYSGRGELSARQMHLARFLRMLLRLADEFGVAVVITNQVVAQVDGAAMFAADPKKPIGGNIIAHASTTRLYLRKGRGETRICKIYDSPCLPEAEAMFAINADGVGDAKD

binding result: binds
B2: human DMC1 (natural protein)
chain: MKEDQVVAEEPGFQDEEESLFQDIDLLQKHGINVADIKKLKSVGICTIKGIQMTTRRALCNVKGLSEAKVDKIKEAANKLIEPGFLTAFEYSEKRKMVFHITTGSQEFDKLLGGGIESMAITEAFGEFRTGKTQLSHTLCVTAQLPGAGGYPGGKIIFIDTENTFRPDRLRDIADRFNVDHDAVLDNVLYARAYTSEHQMELLDYVAAKFHEEAGIFKLLIIDSIMALFRVDFSGRGELAERQQKLAQMLSRLQKISEEYNVAVFVTNQMTADPGATMTFQADPKKPIGGHILAHASTTRISLRKGRGELRIAKIYDSPEMPENEATFAITAGGIGDAKE
